Measurements as given in PMC5799168 (Scientific Reports, 2018).
Numbering of substitutions follows the chain as printed. In names and notes the source's numbering stands.

B1: L444D: recombinant Ndi1 mutant L444D (protein, UniProt P32340 27-513, looked up, variant L444D)
Rotenone-insensitive …: STGVENSGAGPTSFKTMKVIDPQHSDKPNVLILGSGWGAISFLKHIDTKKYNVSIISPRSYFLFTPLLPSAPVGTVDEKSIIEPIVNFALKKKGNVTYYEAEATSINPDRNTVTIKSLSAVSQLYQPENHLGLHQAEPAEIKYDYLISAVGAEPNTFGIPGVTDYGHFLKEIPNSLEIRRTFAANLEKANLLPKGDPERRRLLSIVVVGGGPTGVEAAGELQDYVHQDLRKFLPALAEEVQIHLVEALPIVLNMFEKKLSSYAQSHLENTSIKVHLRTAVAKVEEKQLLAKTKHEDGKITEETIPYGTLIWATGNKARPVITDLFKKIPEQNSSKRGLAVNDFLQVKGSNNIFAIGDNAFAGLPPTAQVAHQEAEYLAKNFDKMAQIPNFQKNLSSRKDKIDLLFEENNFKPFKYNDDGALAYLGSERAIATIRSGKRTFYTGGGLMTFYLWRILYLSMILSARSRLKVFFDWIKLAFFKRDFFKGL
B2: A393G: recombinant Ndi1 mutant A393G (protein, UniProt P32340 27-513, looked up, variant A393G)
Rotenone-insensitive …: B1 Rotenone-insensitive … with A367G, D418L
B3: S484I: recombinant Ndi1 mutant S484I (protein, UniProt P32340 27-513, looked up, variant S484I)
Rotenone-insensitive …: B1 Rotenone-insensitive … with D418L, S458I
B4: R479H: recombinant Ndi1 mutant R479H (protein, UniProt P32340 27-513, looked up, variant R479H)
Rotenone-insensitive …: B1 Rotenone-insensitive … with D418L, R453H
B5: P92A: recombinant Ndi1 mutant P92A (protein, UniProt P32340 27-513, looked up, variant P92A)
Rotenone-insensitive …: B1 Rotenone-insensitive … with P66A, D418L
B6: Q394A: recombinant Ndi1 mutant Q394A (protein, UniProt P32340 27-513, looked up, variant Q394A)
Rotenone-insensitive …: B1 Rotenone-insensitive … with Q368A, D418L
B7: L447N: recombinant Ndi1 mutant L447N (protein, UniProt P32340 27-513, looked up, variant L447N)
Rotenone-insensitive …: B1 Rotenone-insensitive … with D418L, L421N
B8: Y482F: recombinant Ndi1 mutant Y482F (protein, UniProt P32340 27-513, looked up, variant Y482F)
Rotenone-insensitive …: B1 Rotenone-insensitive … with D418L, Y456F
B9: I459W: recombinant Ndi1 mutant I459W (protein, UniProt P32340 27-513, looked up, variant I459W)
Rotenone-insensitive …: B1 Rotenone-insensitive … with D418L, I433W
B10: M485A: recombinant Ndi1 mutant M485A (protein, UniProt P32340 27-513, looked up, variant M485A)
Rotenone-insensitive …: B1 Rotenone-insensitive … with D418L, M459A
B11: R479K: recombinant Ndi1 mutant R479K (protein, UniProt P32340 27-513, looked up, variant R479K)
Rotenone-insensitive …: B1 Rotenone-insensitive … with D418L, R453K
B12: I459N: recombinant Ndi1 mutant I459N (protein, UniProt P32340 27-513, looked up, variant I459N)
Rotenone-insensitive …: B1 Rotenone-insensitive … with D418L, I433N
B13: Wild type: wild-type recombinant Saccharomyces cerevisiae Ndi1 (NADH dehydrogenase) (protein, UniProt P32340 27-513, looked up)
Rotenone-insensitive …: B1 Rotenone-insensitive … with D418L
B14: Q394G: recombinant Ndi1 mutant Q394G (protein, UniProt P32340 27-513, looked up, variant Q394G)
Rotenone-insensitive …: B1 Rotenone-insensitive … with Q368G, D418L
B15: H397A: recombinant Ndi1 mutant H397A (protein, UniProt P32340 27-513, looked up, variant H397A)
Rotenone-insensitive …: B1 Rotenone-insensitive … with H371A, D418L
B16: L444N: recombinant Ndi1 mutant L444N (protein, UniProt P32340 27-513, looked up, variant L444N)
Rotenone-insensitive …: B1 Rotenone-insensitive … with D418N
B17: M485E: recombinant Ndi1 mutant M485E (protein, UniProt P32340 27-513, looked up, variant M485E)
Rotenone-insensitive …: B1 Rotenone-insensitive … with D418L, M459E
B18: W63F: recombinant Ndi1 mutant W63F (protein, UniProt P32340 27-513, looked up, variant W63F)
Rotenone-insensitive …: B1 Rotenone-insensitive … with W37F, D418L
B19: I459A: recombinant Ndi1 mutant I459A (protein, UniProt P32340 27-513, looked up, variant I459A)
Rotenone-insensitive …: B1 Rotenone-insensitive … with D418L, I433A
B20: S484F: recombinant Ndi1 mutant S484F (protein, UniProt P32340 27-513, looked up, variant S484F)
Rotenone-insensitive …: B1 Rotenone-insensitive … with D418L, S458F
B21: R479I: recombinant Ndi1 mutant R479I (protein, UniProt P32340 27-513, looked up, variant R479I)
Rotenone-insensitive …: B1 Rotenone-insensitive … with D418L, R453I
B22: R479A: recombinant Ndi1 mutant R479A (protein, UniProt P32340 27-513, looked up, variant R479A)
Rotenone-insensitive …: B1 Rotenone-insensitive … with D418L, R453A

What follows are molecules tested on wild-type and mutant Ndi1 (assay: Kinetic parameters of the oxidoreductase activity of wild-type and mutant Ndi1 for ubiquinone-1). Conditions: apparent Km for ubiquinone-1 (2.4–60 µM), NADH fixed at 100 µM.
Type: biochemical, Saccharomyces cerevisiae
Method: This unique structure appears to be related to the competitive nature of the inhibition of Ndi1 oxidoreductase activity by stigmatellin. It is therefore hypothesized that L444, I459, R460, and S461, which interact with stigmatellin at the STG-1a site, are also involved in the binding of the substrate ubiquinone (Fig. 5). This hypothesis was evaluated by examining the effects of mutations of the proximal L444 and I459 on the kinetics of the enzymatic reaction of Ndi1. The effect of the mutation of S484, which specifically interacts with stigmatellin at the STG-1b site, was examined as a control. Furthermore, the effects of mutations of W63, P92, A393, Q394, H397, L447, Y482, M485, and L487, which interact with the aromatic head group of stigmatellin at the STG-1a and STG-1b sites, were also examined. Moreover, to investigate the functional role of the STG-2 site in ubiquinone binding, a mutation was also introduced to R479.
NADH-ubiquinone oxidoreductase activity was measured as described previously. In brief, the reaction was started by adding 100 µM NADH to the enzyme mixture containing 10 ng/mL Ndi1, 50 mM sodium phosphate (pH 6.0) and 1 mM EDTA, which was pre-incubated with various concentrations of ubiquinone-1 for 1 min. The decrease in 340 nm absorbance was measured as an indication of the oxidation of NADH (ε = 6.22 mM^−1 cm^−1) with a Shimadzu UV2000 spectrophotometer (Kyoto, Japan). The enzymatic activity obtained with 100 µM NADH and 60 µM ubiquinone-1 in the absence of any inhibitors (100% activity) catalyzed the oxidation of 1,890 μmol NADH/min/mg Ndi1. The concentrations of inhibitors required to obtain the half-maximal inhibition (IC50) were estimated by non-linear regression dose-response curves. The inhibition mode of each inhibitor for ubiquinone-1 was determined by the intersection point in double-reciprocal plots (Fig. 2B–E). To objectively evaluate the inhibition mode, the data of the inhibition kinetics were fitted to the Eq. (1) of mixed model inhibition in the Prism6 software program (GraphPad Software, Inc., La Jolla, CA).1 V=Vmax[S]/[S](1+[I]/αKi)+Km(1+[I]/Ki) […]
To determine the kinetic parameters of wild-type and mutant enzymes for ubiquinone-1, the NADH oxidation rates were measured in a fixed concentration of NADH (100 µM) and different concentrations of ubiquinone-1 (2.4–60 µM). Apparent Km and Vmax values were obtained by fitting a data set of initial velocity versus substrate concentration to the Michaelis-Menten model equation in the Prism6 software program.
Site-directed mutagenesis. The amino acid replacements of Ndi1 were basically performed with PrimeSTAR mutagenesis basal kit (Takara, Japan) using pET16b(NDI1-m) (2) and a synthetic oligonucleotide primer set (Table S2). The mutagenesis of H397 was performed with a QuikChange II XL site-directed mutagenesis kit (Stratagene, CA). Each mutation was confirmed through DNA sequencing (DNA sequencing service, Eurofins). The purification procedure of wild-type and mutant enzymes, used for the determination of the kinetic parameters (Table 2), was basically the same as the above procedure, without the replacement of the detergent from Triton X -100 with DDM. After washing the enzyme with buffer A containing 0.1% Triton X-100 and 15 mM histidine, 0.02% Triton X-100 was added to all buffer as a substitute for DDM. With the exception of 5 mutants containing L444D, I459A, […]
yield of the wild-type enzyme. […]
Work on B1 yielded a Km of 37.6 ± 3.9 µM.
B2 showed a Km of 32.5 ± 1.9 µM.
With B3 the Km was 25 ± 1.7 µM.
In the case of B4, the Km is reported as 23.5 ± 1.4 µM.
B5 was tested, and the Km was 25.6 ± 2.2 µM.
Molecule B6 has a Km of 24.5 ± 1.7 µM.
B7 gave a Km of 17.9 ± 1.8 µM.
With B8 the Km was 23.3 ± 2 µM.
For B9, the Km was 75.6 ± 12 µM.
For B10, the Km was 18.6 ± 1.1 µM.
B11 showed a Km of 9.37 ± 0.48 µM.
In the case of B12, the Km is reported as 30.3 ± 2 µM.
B13 was tested, and the Km was 22.7 ± 1 µM.
For B14, the Km was 30.8 ± 3.4 µM.
Work on B15 yielded a Km of 35 ± 2.7 µM.
B16 gave a Km of 23.9 ± 2 µM.
With B17 the Km was 63.5 ± 7.8 µM.
B18 gave a Km of 53.1 ± 6.4 µM.
Molecule B19 has a Km of 40.2 ± 4.1 µM.
With B20 the Km was 24.5 ± 3.9 µM.
B21 showed a Km of 27.7 ± 1.2 µM.
Work on B22 yielded a Km of 11.5 ± 0.58 µM.

Same assay, conditions: relative to wild-type Ndi1
B1 was tested, and the “increase of Km value for ubiquinone-1 in comparison to wild-type enzyme” value (from here on “increase of Km value”) was 1.7 fold.
With B2 the “Vmax, % of the wild-type activity” value was 83% and the “increase of Km value” value was 1.4 fold.
With B4 the “Vmax, % of the wild-type activity” value was 0.1%.
With B5 the “Vmax, % of the wild-type activity” value was 1%.
B6 was tested, and the “Vmax, % of the wild-type activity” value was 37%.
With B7 the “Vmax, % of the wild-type activity” value was 13%.
For B9, the “increase of Km value” value was 3.3 fold.
With B10 the “Vmax, % of the wild-type activity” value was 28%.
For B11, the “Vmax, % of the wild-type activity” value was 29%.
In the case of B14, the “Vmax, % of the wild-type activity” value is reported as 43% and the “increase of Km value” value is reported as 1.4 fold.
For B15, the “Vmax, % of the wild-type activity” value was 44% and the “increase of Km value” value was 1.5 fold.
For B17, the “Vmax, % of the wild-type activity” value was 112% and the “increase of Km value” value was 2.8 fold.
For B18, the “Vmax, % of the wild-type activity” value was 137% and the “increase of Km value” value was 2.3 fold.
In the case of B19, the “increase of Km value” value is reported as 1.8 fold.
With B22 the “Vmax, % of the wild-type activity” value was 30%.

Same assay, conditions: ubiquinone-1 as substrate (2.4–60 µM), NADH fixed at 100 µM
Molecule B1 has a Vmax of 447 ± 6.8 µmol/min/mg.
B2 gave a Vmax of 882 ± 7.6 µmol/min/mg.
With B3 the Vmax was 1010 ± 33 µmol/min/mg.
Molecule B4 has a Vmax of 1.06 ± 0.035 µmol/min/mg.
Molecule B5 has a Vmax of 11.3 ± 0.4 µmol/min/mg.
B6 was tested, and the Vmax was 391 ± 3.3 µmol/min/mg.
With B7 the Vmax was 140 ± 7.1 µmol/min/mg.
Work on B8 yielded a Vmax of 1090 ± 45 µmol/min/mg.
With B9 the Vmax was 58.0 ± 1.5 µmol/min/mg.
Work on B10 yielded a Vmax of 292 ± 9.9 µmol/min/mg.
Molecule B11 has a Vmax of 305 ± 5.8 µmol/min/mg.
B12 showed a Vmax of 11.1 ± 0.096 µmol/min/mg.
Molecule B13 has a Vmax of 1060 ± 6.1 µmol/min/mg.
With B14 the Vmax was 452 ± 8.1 µmol/min/mg.
B15 gave a Vmax of 463 ± 17 µmol/min/mg.
B16 gave a Vmax of 1333 ± 14 µmol/min/mg.
B17 showed a Vmax of 1190 ± 96 µmol/min/mg.
B18 gave a Vmax of 1450 ± 27 µmol/min/mg.
For B19, the Vmax was 2.90 ± 0.0042 µmol/min/mg.
B20 showed a Vmax of 1160 ± 120 µmol/min/mg.
B21 was tested, and the Vmax was 0.313 ± 0.007 µmol/min/mg.
With B22 the Vmax was 316 ± 6.1 µmol/min/mg.
